The record followed here is US6383782.

Experiment [1] addresses MCP-1 receptor B (CCR2B) (human) (UniProt P41597). The experiment is described as follows: cell-based or functional assay.
Experiment [2] shares this target. The experiment is described as follows: competition with 100 pM 125I-MCP-1 on CHO-CCR2B membranes, filtration; mean of 18 assays.
The target is the same in experiment [3]. In words: competition with 100 pM 125I-MCP-1 on CHO-CCR2B membranes, filtration; at least 2 assays.
Experiment [4] has the same target. In words: equilibrium binding of 125I-MCP-1 to CHO-CCR2B membranes.
The target is the same in experiment [5]. In words: cold competition of unlabelled MCP-1 against 100 pM 125I-MCP-1 on CHO-CCR2B membranes.
The target is the same in experiment [6]. In words: competition with 100 pM 125I-MCP-1 on CHO-CCR2B membranes, filtration; mean of 8 assays.

Broadly, the IC50 is the midpoint of a concentration-inhibition curve. A low value points to greater potency. What is called Kd is the constant that tells how readily two partners part at equilibrium. A higher Kd goes with a looser complex.

On to “MCP1(9-76) (SEQ ID NO: 30) (from UniProt P13500 32-99) (ligand)”, for which, in experiment [1], the Calcium flux (IC50), THP-1 cells is 45 nM and the Chemotaxis (IC50), THP-1 cells, 1 nM MCP-1 came out at 12 nM. In experiment [2], this substance returned an IC50 of 1.9 nM.
Take “Met-MCP1(9-76) (SEQ ID NO: 31) (from UniProt P13500 32-99) (ligand)”: the IC50 in experiment [3] came to 3.2 nM.
With “Monocyte Chemoattractant Protein-1 (MCP-1) (from UniProt P13500 24-99) (ligand)”, the rise in [Ca2+]i in THP-1 cells (EC50) in experiment [1] came to 2 nM. The substance further showed a Kd in experiment [4] of 0.12 nM. In experiment [5], the half-inhibitory concentration (IC50) was 0.11 nM.
With “[V9A]MCP1(9-76) (SEQ ID NO: 9) (from UniProt P13500 33-99) (ligand)”, in experiment [1], the Calcium flux (IC50), THP-1 cells amounted to 109 nM and the Chemotaxis (IC50), THP-1 cells, 1 nM MCP-1 stood at 23 nM. Also, the IC50 in experiment [2] is 2.5 nM.
For “[V9G]MCP1(9-76) (SEQ ID NO: 26) (from UniProt P13500 33-99) (ligand)”, in experiment [1], the Chemotaxis (IC50), THP-1 cells, 1 nM MCP-1 was 10.9 nM. In addition, the IC50 in experiment [6] stood at 3.2 nM.
For “[V9T]MCP1(9-76) (SEQ ID NO: 29) (from UniProt P13500 33-99) (ligand)”, the Chemotaxis (IC50), THP-1 cells, 1 nM MCP-1 in experiment [1] came to 21 nM. Also, the IC50 in experiment [6] came to 2 nM.
Regarding “pGlu-MCP1(9-76) (SEQ ID NO: 32) (from UniProt P13500 32-99) (ligand)”, the Calcium flux (IC50), THP-1 cells in experiment [1] came out at 117 nM. In experiment [3], this substance gave a half-maximal inhibitory concentration (IC50) of 2.6 nM.
